Test system: Escherichia coli TOP10
Assay: shrunken log2 fold change of peptide-encoding DNA abundance (4.5 h post-induction vs induction); higher = less antimicrobial activity (less host growth inhibition)
Conditions: time post-induction: 4.5 h; library: site-saturation at positions 5, 18, 19, 20
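Note: peptides expressed intracellularly from a pBAD plasmid library in pooled LB shake-flask culture, induced with 0.3% L-arabinose, DNA abundance read by NGS, three biological replicates, DESeq2 with apeglm shrinkage.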

Row | Sequence | shrunken log2 fold change
1 | RRIRPRPPRLPRPRPRPHWKPRP | -0.131
2 | RRIRPRPPRLPRPRPRPHYQPRP | -0.417
3 | RRIRPRPPRLPRPRPRPIASPRP | -0.0044
4 | RRIRPRPPRLPRPRPRPIAYPRP | -0.0833
5 | RRIRPRPPRLPRPRPRPICGPRP | 0.103
6 | RRIRPRPPRLPRPRPRPICSPRP | -0.014
7 | RRIRPRPPRLPRPRPRPIDQPRP | -0.116
8 | RRIRPRPPRLPRPRPRPIDSPRP | -0.018
9 | RRIRPRPPRLPRPRPRPIEVPRP | -0.113
10 | RRIRPRPPRLPRPRPRPIFCPRP | -0.0959
11 | RRIRPRPPRLPRPRPRPIFNPRP | -0.238
12 | RRIRPRPPRLPRPRPRPIFYPRP | -0.102
13 | RRIRPRPPRLPRPRPRPIGDPRP | -0.0205
14 | RRIRPRPPRLPRPRPRPIGHPRP | -0.0228
15 | RRIRPRPPRLPRPRPRPIHNPRP | -0.569
16 | RRIRPRPPRLPRPRPRPIINPRP | -0.909
17 | RRIRPRPPRLPRPRPRPIIRPRP | -0.168
18 | RRIRPRPPRLPRPRPRPIITPRP | -0.587
19 | RRIRPRPPRLPRPRPRPIIWPRP | -0.0266
20 | RRIRPRPPRLPRPRPRPIKLPRP | -0.0641
21 | RRIRPRPPRLPRPRPRPILPPRP | 0.198
22 | RRIRPRPPRLPRPRPRPIMKPRP | -0.411

Row | Sequence | shrunken log2 fold change
23 | RRIRPRPPRLPRPRPRPIQFPRP | -0.145
24 | RRIRPRPPRLPRPRPRPIREPRP | 0.31
25 | RRIRPRPPRLPRPRPRPIRRPRP | -0.0359
26 | RRIRPRPPRLPRPRPRPISCPRP | -0.0606
27 | RRIRPRPPRLPRPRPRPISVPRP | -0.171
28 | RRIRPRPPRLPRPRPRPITNPRP | -0.471
29 | RRIRPRPPRLPRPRPRPIVMPRP | -0.445
30 | RRIRPRPPRLPRPRPRPIWPPRP | 0.302
31 | RRIRPRPPRLPRPRPRPIWYPRP | -0.0201
32 | RRIRPRPPRLPRPRPRPIYWPRP | 0.00563
33 | RRIRPRPPRLPRPRPRPKAVPRP | 0.0993
34 | RRIRPRPPRLPRPRPRPKCDPRP | -0.314
35 | RRIRPRPPRLPRPRPRPKDMPRP | -0.0163
36 | RRIRPRPPRLPRPRPRPKECPRP | 0.241
37 | RRIRPRPPRLPRPRPRPKEQPRP | 0.183
38 | RRIRPRPPRLPRPRPRPKFYPRP | -0.351
39 | RRIRPRPPRLPRPRPRPKHIPRP | -0.301
40 | RRIRPRPPRLPRPRPRPKHLPRP | -0.355
41 | RRIRPRPPRLPRPRPRPKHPPRP | 0.995
42 | RRIRPRPPRLPRPRPRPKIGPRP | 0.0118
43 | RRIRPRPPRLPRPRPRPKIIPRP | -0.0308
44 | RRIRPRPPRLPRPRPRPKLCPRP | -0.0437

Row | Sequence | shrunken log2 fold change
45 | RRIRPRPPRLPRPRPRPKMDPRP | 0.0116
46 | RRIRPRPPRLPRPRPRPKPIPRP | 0.035
47 | RRIRPRPPRLPRPRPRPKQEPRP | 0.138
48 | RRIRPRPPRLPRPRPRPKRSPRP | 0.0941
49 | RRIRPRPPRLPRPRPRPKSMPRP | -0.37
50 | RRIRPRPPRLPRPRPRPKTQPRP | -0.02
51 | RRIRPRPPRLPRPRPRPKVVPRP | 0.454
52 | RRIRPRPPRLPRPRPRPKWTPRP | -0.0336
53 | RRIRPRPPRLPRPRPRPKYNPRP | -0.633
54 | RRIRPRPPRLPRPRPRPKYVPRP | -0.132
55 | RRIRPRPPRLPRPRPRPLAGPRP | 0.3
56 | RRIRPRPPRLPRPRPRPLCEPRP | 0.0379
57 | RRIRPRPPRLPRPRPRPLCQPRP | -0.116
58 | RRIRPRPPRLPRPRPRPLCRPRP | 0.0255
59 | RRIRPRPPRLPRPRPRPLDQPRP | 0.0885
60 | RRIRPRPPRLPRPRPRPLDYPRP | -0.495
61 | RRIRPRPPRLPRPRPRPLECPRP | -0.000998
62 | RRIRPRPPRLPRPRPRPLEVPRP | -0.007
63 | RRIRPRPPRLPRPRPRPLFLPRP | -0.0037
64 | RRIRPRPPRLPRPRPRPLGEPRP | -0.155
65 | RRIRPRPPRLPRPRPRPLGFPRP | 0.49
66 | RRIRPRPPRLPRPRPRPLHRPRP | -0.284

Row | Sequence | shrunken log2 fold change
67 | RRIRPRPPRLPRPRPRPLLGPRP | 0.191
68 | RRIRPRPPRLPRPRPRPLLWPRP | 0.0186
69 | RRIRPRPPRLPRPRPRPLMGPRP | -0.0395
70 | RRIRPRPPRLPRPRPRPLMHPRP | -0.0913
71 | RRIRPRPPRLPRPRPRPLMWPRP | 0.432
72 | RRIRPRPPRLPRPRPRPLPGPRP | 0.02
73 | RRIRPRPPRLPRPRPRPLPQPRP | 0.286
74 | RRIRPRPPRLPRPRPRPLRIPRP | 0.0628
75 | RRIRPRPPRLPRPRPRPLRKPRP | 0.319
76 | RRIRPRPPRLPRPRPRPLSGPRP | 0.0234
77 | RRIRPRPPRLPRPRPRPLSSPRP | 0.00895
78 | RRIRPRPPRLPRPRPRPLTAPRP | 0.212
79 | RRIRPRPPRLPRPRPRPLTHPRP | -0.108
80 | RRIRPRPPRLPRPRPRPLWYPRP | -0.496
81 | RRIRPRPPRLPRPRPRPLYGPRP | 0.0853
82 | RRIRPRPPRLPRPRPRPLYRPRP | -0.181
83 | RRIRPRPPRLPRPRPRPMALPRP | -0.0509
84 | RRIRPRPPRLPRPRPRPMDRPRP | 0.247
85 | RRIRPRPPRLPRPRPRPMDSPRP | -0.0149
86 | RRIRPRPPRLPRPRPRPMEWPRP | -0.0225
87 | RRIRPRPPRLPRPRPRPMFFPRP | -0.207
88 | RRIRPRPPRLPRPRPRPMFNPRP | -0.648

Row | Sequence | shrunken log2 fold change
89 | RRIRPRPPRLPRPRPRPMHDPRP | -0.0561
90 | RRIRPRPPRLPRPRPRPMHEPRP | 0.297
91 | RRIRPRPPRLPRPRPRPMHHPRP | -0.194
92 | RRIRPRPPRLPRPRPRPMHNPRP | -0.202
93 | RRIRPRPPRLPRPRPRPMKAPRP | 0.0531
94 | RRIRPRPPRLPRPRPRPMLGPRP | 0.252
95 | RRIRPRPPRLPRPRPRPMLSPRP | 0.0181
96 | RRIRPRPPRLPRPRPRPMMGPRP | 0.0538
97 | RRIRPRPPRLPRPRPRPMMIPRP | 0.0824
98 | RRIRPRPPRLPRPRPRPMMNPRP | 0.03
99 | RRIRPRPPRLPRPRPRPMMTPRP | -0.146
100 | RRIRPRPPRLPRPRPRPMNPPRP | 0.00824
101 | RRIRPRPPRLPRPRPRPMNVPRP | -0.0376
102 | RRIRPRPPRLPRPRPRPMPFPRP | -0.349
103 | RRIRPRPPRLPRPRPRPMQKPRP | 0.0491
104 | RRIRPRPPRLPRPRPRPMSVPRP | 0.0754
105 | RRIRPRPPRLPRPRPRPMTGPRP | -0.239
106 | RRIRPRPPRLPRPRPRPMVMPRP | -0.0504
107 | RRIRPRPPRLPRPRPRPMWWPRP | 0.189
108 | RRIRPRPPRLPRPRPRPNACPRP | 0.195
109 | RRIRPRPPRLPRPRPRPNATPRP | 0.323
